Source: US20230310602A1 (published 2023)

Columns and labels:
[1] = molecular target: T1, HCELL (exofucosylated CD44) on FTVII-treated human MSCs (FuchAdMSCs, adipose-derived); FuchBMMSCs, bone … (human, UniProt P16070 21-742, fucose installed in α(1,3)-linkage onto sialyllactosaminyl glycans of CD44 by fucosyltransferase VII with GDP-fucose (creates sLe^x)); experiment: cell-based or functional assay
[2] = molecular target: T1, HCELL (exofucosylated CD44) on …; experiment: cell-based or functional assay; remark: listed apart in the source

T1 sequence (P16070 21-742): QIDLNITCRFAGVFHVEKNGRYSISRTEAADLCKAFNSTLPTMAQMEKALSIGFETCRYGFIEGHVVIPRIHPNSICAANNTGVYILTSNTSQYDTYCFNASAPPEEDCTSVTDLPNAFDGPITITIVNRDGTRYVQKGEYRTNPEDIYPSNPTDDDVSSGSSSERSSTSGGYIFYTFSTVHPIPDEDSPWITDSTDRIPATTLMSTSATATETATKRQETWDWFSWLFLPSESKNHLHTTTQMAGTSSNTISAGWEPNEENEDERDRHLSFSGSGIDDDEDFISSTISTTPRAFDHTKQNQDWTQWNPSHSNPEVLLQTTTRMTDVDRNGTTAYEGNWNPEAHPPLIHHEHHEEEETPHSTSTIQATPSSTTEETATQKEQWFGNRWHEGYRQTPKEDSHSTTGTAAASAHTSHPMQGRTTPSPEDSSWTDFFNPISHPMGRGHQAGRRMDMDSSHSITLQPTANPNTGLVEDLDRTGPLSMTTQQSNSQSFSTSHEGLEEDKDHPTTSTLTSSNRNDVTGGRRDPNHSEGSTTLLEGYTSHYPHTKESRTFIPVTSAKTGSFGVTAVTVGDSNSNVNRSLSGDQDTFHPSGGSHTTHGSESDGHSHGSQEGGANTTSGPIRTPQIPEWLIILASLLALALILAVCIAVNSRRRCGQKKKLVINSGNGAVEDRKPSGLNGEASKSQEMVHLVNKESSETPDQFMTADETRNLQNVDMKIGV

B1: Recombinant mouse E-selectin-human Fc chimera (mE-Ig) (Fc fusion, UniProt Q00690 22-557, looked up, not shown: a dimerising Fc or GST)
chain: WYYNASSELMTYDEASAYCQRDYTHLVAIQNKEEINYLNSNLKHSPSYYWIGIRKVNNVWIWVGTGKPLTEEAQNWAPGEPNNKQRNEDCVEIYIQRTKDSGMWNDERCNKKKLALCYTASCTNASCSGHGECIETINSYTCKCHPGFLGPNCEQAVTCKPQEHPDYGSLNCSHPFGPFSYNSSCSFGCKRGYLPSSMETTVRCTSSGEWSAPAPACHVVECEALTHPAHGIRKCSSNPGSYPWNTTCTFDCVEGYRRVGAQNLQCTSSGIWDNETPSCKAVTCDAIPQPQNGFVSCSHSTAGELAFKSSCNFTCEQSFTLQGPAQVECSAQGQWTPQIPVCKAVQCEALSAPQQGNMKCLPSASGPFQNGSSCEFSCEEGFELKGSRRLQCGPRGEWDSKKPTCSAVKCDDVPRPQNGVMECAHATTGEFTYKSSCAFQCNEGFSLHGSAQLECTSQGKWTQEVPSCQVVQCPSLDVPGKMNMSCSGTAVFGTVCEFTCPDDWTLNGSAVLTCGATGRWSGMPPTCEAPVSPTRP
IL-10 production of adipose-derived hAdMSCs, ratio of FuchMSCs/UhMSCs for E-selectin exposure [1]: 10 fold
IDO in supernatant, ratio FuchAdMSCs/UhAdMSCs, mE-IG (1 µg/ml) [2]: 6.75 ratio
IDO in supernatant, ratio FuchAdMSCs/UhAdMSCs, mE-IG (5 µg/ml) [2]: 7.72 ratio
IDO in supernatant, ratio FuchBMMSCs/UhBMMSCs, mE-IG (1 µg/ml) [2]: 4.71 ratio
IDO in supernatant, ratio FuchBMMSCs/UhBMMSCs, mE-IG (5 µg/ml) [2]: 4.74 ratio
IL-10 in supernatant, ratio FuchAdMSCs/UhAdMSCs, mE-IG (1 µg/ml) [2]: 12.7 ratio
IL-10 in supernatant, ratio FuchAdMSCs/UhAdMSCs, mE-IG (5 µg/ml) [2]: 16 ratio
IL-10 in supernatant, ratio FuchBMMSCs/UhBMMSCs, mE-IG (1 µg/ml) [2]: 3.87 ratio
IL-10 in supernatant, ratio FuchBMMSCs/UhBMMSCs, mE-IG (5 µg/ml) [2]: 4.85 ratio
NO2^-/NO3^- in supernatant, ratio FuchAdMSCs/UhAdMSCs, mE-IG (1 µg/ml) [2]: 5.12 ratio
NO2^-/NO3^- in supernatant, ratio FuchAdMSCs/UhAdMSCs, mE-IG (5 µg/ml) [2]: 5.9 ratio
NO2^-/NO3^- in supernatant, ratio FuchBMMSCs/UhBMMSCs, mE-IG (1 µg/ml) [2]: 3.31 ratio
NO2^-/NO3^- in supernatant, ratio FuchBMMSCs/UhBMMSCs, mE-IG (5 µg/ml) [2]: 5.14 ratio
TGFβ in supernatant, ratio FuchAdMSCs/UhAdMSCs, mE-IG (1 µg/ml) [2]: 12.2 ratio
TGFβ in supernatant, ratio FuchAdMSCs/UhAdMSCs, mE-IG (5 µg/ml) [2]: 12.4 ratio
TGFβ in supernatant, ratio FuchBMMSCs/UhBMMSCs, mE-IG (1 µg/ml) [2]: 8.11 ratio
TGFβ in supernatant, ratio FuchBMMSCs/UhBMMSCs, mE-IG (5 µg/ml) [2]: 8.5 ratio
